B1: Coiled-coil quantitatively-enriched protein 1 (Schizosaccharomyces pombe (strain ATCC 38366 / 972)), Q10432 (parent)
chain: MSEINDFTNSIIINESDTKYEVYSEVNSSNRWIAKEDCPSPLEDVWLLKLAGHKRKLEEPLSCMRNEEPASKQREIEKFLRTDLDHSENDFLTQEVDEFPSTQQLFPIPLQNDTAFDSSEESITKSSKSSFSVLDIGLPMSALQRKMMHRLVQYFAFCIDHFCTGPSDSRIQEKIRLFIQSAHNIAKHPSLYDTEVRNPSAAESTNSHVSLDASNFSSYAENSSKFLFLQELFKNLSPSYSKTFFLFISNQFLANTLTQWLKSQNIDAELWAEEDAKTSQHPAIWICVSKKAPSASHFLQSCPDLSATIFYDIEAYMSVTSSLPSIQSLVLRLIHLGSIEHAIKCFQSSYNASFLVNIVGVVATLSSSSEENSEASNLSTLFEKSGNFEEILGSESHSSITEKTRDIAKNVATWLKNGENFSSWPLPPLMDLASLSVAEPRDSQPSVSQVNDTFVKSSDSTFPSSQSMQSPSKLHSLTSNATDLLSSSSLKKNFFSQQEADEVELSNNYDLQGAAVQYLQRRLRMVEDELHEAINSKNVQQSRSEELEQQISKLTDNLQEYRNTVRELKLDLEKSKKKNEDLSKLEVEKVEEIANLKKELTHLAKQQEFGFKYVQEFSNEDLQGKLIEANEKNYKLTQLLKTQKEDADFITNQYQNASTFAAEQSKEVAKLQAECKRLQAINSKVMEEVKVYNDSRVEALLAKVSSLEETLKILEQKSLPKFTPHNQSPRIIDSN
partner: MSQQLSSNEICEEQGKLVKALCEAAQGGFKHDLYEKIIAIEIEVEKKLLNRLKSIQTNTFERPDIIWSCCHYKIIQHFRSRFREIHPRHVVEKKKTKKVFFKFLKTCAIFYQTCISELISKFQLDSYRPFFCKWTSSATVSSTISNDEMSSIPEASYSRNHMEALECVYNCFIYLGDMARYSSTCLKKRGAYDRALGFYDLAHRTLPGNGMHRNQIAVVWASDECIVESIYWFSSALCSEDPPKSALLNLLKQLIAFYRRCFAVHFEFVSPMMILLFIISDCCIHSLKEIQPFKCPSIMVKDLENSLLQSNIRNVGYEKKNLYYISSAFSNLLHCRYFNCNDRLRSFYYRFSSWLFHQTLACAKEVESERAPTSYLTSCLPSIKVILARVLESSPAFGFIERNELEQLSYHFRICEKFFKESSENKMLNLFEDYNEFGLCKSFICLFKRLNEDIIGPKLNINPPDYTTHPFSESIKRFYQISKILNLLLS
B2: Telomere elongation protein est1 (Schizosaccharomyces pombe (strain ATCC 38366 / 972)), O74804 (parent)
chain: B1 partner
partner: B1 chain

In one experiment the parent is B1. The following applies: with est1_schpo est1, O74804.
For the variant T93D, the “effect of a mutation on the interaction” value was “disrupting interaction”.

Regarding Q94A, the “effect of a mutation on the interaction” value is on record as “decreasing interaction”.

Variants of B1 are the subject of another experiment. The following applies: with est1_schpo est1, O74804. The source holds these as a separate data set.
In the case of T93D, the “effect of a mutation on the interaction” value is “disrupting interaction strength”.

Consider T93A, for which the “effect of a mutation on the interaction” value is listed as “disrupting interaction strength”.

T93E: the “effect of a mutation on the interaction” value is on record as “disrupting interaction strength”.

As to Q94A, the “effect of a mutation on the interaction” value is on record as “disrupting interaction”.

In a further experiment the parent is B2. The following applies: with ccq1_schpo ccq1, Q10432.
On to R79A;R180A, for which the “effect of a mutation on the interaction” value was “disrupting interaction”.

Turning to R180A, the “effect of a mutation on the interaction” value is recorded as “disrupting interaction”.

R79A: the “effect of a mutation on the interaction” value is “disrupting interaction”.

The next experiment covers variants of B2. The following applies: with ccq1_schpo ccq1, Q10432. This is another data set of the same source.
Turning to K73A, the “effect of a mutation on the interaction” value is “decreasing interaction”.

Take R79A: the “effect of a mutation on the interaction” value is “decreasing interaction”.

The values above are taken from IntAct's records for PubMed 22101932.
